# B1: PfCoronin 1-388 (N-terminal beta-propeller domain of Plasmodium falciparum coronin) (domain or fragment)
# chain: MYNVPLIKNLYPDPSNNLYGDLRICSRATETCGIACSAGYIAVPWQVEGGGMIGVIRLENQVRNPPVIKLKSHTSPILDLSFNPCYSEILASCSEDMSIRIWEIRHEDENVNEVKDPLCILNGHKKKVNILSWNPMNYFILSSTSFDSSVNIWDIENEKKAFEINMPKKLSSLQWDIGGNLLSGTCQNKQIHIIDPRKQEICNSFLIHDGGKSTKCIWIDGFGGEDKCILTTGFSKNNMRELKLWSLKNTTSPLTTITLDNAASPLLPHYDESVGMIYLIGKGDGNCRYYQYSQGSIRKVDEYKSCLPFRSFGFLPKRMCDVYKCEIGRVYKNENNTDIRPISFYVPRKNSSIFQEDLYPPIIMRDPERSTNKWIDGINLDIKRVSIK
# B2: His-PfAldolase (Plasmodium falciparum fructose 1,6 bisphosphate aldolase) (enzyme, UniProt Q7KQL9 1-369, looked up)
# chain: MAHCTEYMNAPKKLPADVAEELATTAQKLVQAGKGILAADESTQTIKKRFDNIKLENTIENRASYRDLLFGTKGLGKFISGAILFEETLFQKNEAGVPMVNLLHNENIIPGIKVDKGLVNIPCTDEEKSTQGLDGLAERCKEYYKAGARFAKWRTVLVIDTAKGKPTDLSIHETAWGLARYASICQQNRLVPIVEPEILADGPHSIEVCAVVTQKVLSCVFKALQENGVLLEGALLKPNMVTAGYECTAKTTTQDVGFLTVRTLRRTVPPALPGVVFLSGGQSEEEASVNLNSINALGPHPWALTFSYGRALQASVLNTWQGKKENVAKAREVLLQRAEANSLATYGKYKGGAGGENAGASLYEKKYVY
# notes: Detected by anti-His Western blot in the sedimentation assay; source: E. coli BL21 (DE3), purified (IMAC, cation exchange, SEC); not shown: His6, N-terminal, kept
# Experiments:
# [1] = molecular target: rabbit skeletal muscle actin (filamentous, Mg-ATP-actin polymerised) (rabbit, UniProt P68135 1-377); test: co-sedimentation; settings: both partners purified
# [2] = molecular target: the molecule itself; test: SEC; Superdex 200 10/300, 50 mM MES pH 7.0, 100 mM NaCl, 2 mM DTT, 1 mM EDTA; single peak at ~13 mL, ~160 kDa
Binder,Kd [1] [nM],stoichiometry N [2]
B1,956,–
B2,–,~4
